Laboratory results: paper PMC8096331, “Completion of the gut microbial epi-bile acid pathway” (Gut Microbes, 2021)

B1: Cp12β-HSDH (Clostridium paraputrificum) (protein)
chain: MKELNEKVAIITGAGQGIGKGIALHLGKRGVKVVCVGRRLDPIVQTVKEVEEAGGQGFAITCDVGNREDVKKVVKATVEKYGTVDVVVNNAQSLPGSAKVEDTTYEQMLTAWQSGTIGSLNMMQECFPYMKDQNEGRIINFASATGMFGYAGQLAYGCNKESIRGLTKIAAKEWAQYNIIVNCVLPGAESPAAKVWAEKFPEKYKEIMEAQPMKRFGDGEDDIGRVIAFLAGPDSKYYTGQCLLVDGGYSIAP
notes: full length, N-terminal His6 tag (pET-28a(+)), E. coli BL21-CodonPlus(DE3) RIPL, TALON purified

Columns and labels:
[1] = molecular target: Clostridium paraputrificum ATCC 25780 bile acid 12β-HSDH (WP_027099077.1) (Clostridium paraputrificum ATCC 25780); assay: SEC; Superose 6 10/300 GL analytical column, 4°C, 50 mM Tris-Cl, 150 mM NaCl, pH 7.5; purified protein loaded at 10 mg/mL, 0.3 ml/min; native mass estimated against Bio-Rad gel filtration standards
[2] = substrate: NC(=O)C1=CN([C@@H]2O[C@H](COP(=O)(O)OP(=O)(O)OC[C@H]3O[C@@H](n4cnc5c(N)ncnc54)[C@H](OP(=O)(O)O)[C@@H]3O)[C@@H](O)[C@H]2O)C=CC1; assay: purified protein; conditions: reductive direction, 80 µM 12-oxoLCA, 10 nM enzyme, sodium phosphate pH 7.0, varied: cofactor
[3] = substrate: NC(=O)c1ccc[n+]([C@@H]2O[C@H](COP(=O)(O)OP(=O)(O)OC[C@H]3O[C@@H](n4cnc5c(N)ncnc54)[C@H](OP(=O)(O)O)[C@@H]3O)[C@@H](O)[C@H]2O)c1; assay: purified protein; format: biochemical, Clostridium paraputrificum; conditions: oxidative direction; 100 µM epiDCA; 10 nM enzyme; sodium phosphate pH 7.5; pH 7.5; varied: cofactor
[4] = substrate: [H][C@]12CC[C@]3([H])[C@]([H])(CC(=O)[C@@]4(C)[C@@]3([H])CC[C@]4([H])[C@H](C)CCC(=O)O)[C@@]1(C)CC[C@@H](O)C2; assay: purified protein; format: biochemical, Clostridium paraputrificum; conditions: reductive direction; 150 µM NADPH; 10 nM enzyme; sodium phosphate pH 7.0; pH 7.0
[5] = substrate: C[C@H](CCC(=O)O)[C@H]1CC[C@H]2[C@@H]3CC[C@@H]4C[C@H](O)CC[C@]4(C)[C@H]3C[C@@H](O)[C@]12C; assay: purified protein; format: biochemical, Clostridium paraputrificum; conditions: oxidative direction; 300 µM NADP+; 10 nM enzyme; sodium phosphate pH 7.5; pH 7.5

Molecule | stoichiometry N [1] | Km [2] [µM] | Vmax [2] [µmol/min/mg] | kcat [2] [s⁻¹] | kcat/Km [2] [M⁻¹ s⁻¹] | Km [3] [µM] | Vmax [3] [µmol/min/mg] | kcat [3] [s⁻¹] | kcat/Km [3] [M⁻¹ s⁻¹] | Km [4] [µM] | Vmax [4] [µmol/min/mg] | kcat [4] [s⁻¹] | kcat/Km [4] [M⁻¹ s⁻¹] | Km [5] [µM] | Vmax [5] [µmol/min/mg] | kcat [5] [s⁻¹] | kcat/Km [5] [M⁻¹ s⁻¹]
Clostridium paraputrificum ATCC 25780 bile acid 12β-HSDH (WP_027099077.1) (enzyme) | 2 | – | – | – | – | – | – | – | – | – | – | – | – | – | – | – | –
B1 | – | 29.16 ± 0.42 | 61.8 | 28.1 | 970000 | 36.84 ± 0.55 | 97.9 | 44.6 ± 3.77 | 1.21e+06 ± 120000 | 18.76 ± 0.40 | 58.4 | 26.6 ± 1.62 | 1.42e+06 ± 110000 | 44.43 ± 1.13 | 130 | 59.3 ± 5.47 | 1.34e+06 ± 150000
